Results published in patent US20260217863A1, “ANTIBODY OR PEPTIDE BINDING SPECIFICALLY TO RNASE A, IMMUNOASSAY DEVICE AND METHOD FOR DETECTING RNASE A, AND METHOD FOR COLLECTING RNASE A” (UIF (University Industry Foundation), Yonsei University, priority 2022, published 2026).

Biological target: Ribonuclease A (Type II-A) from bovine pancreas (bovine) (UniProt P61823)
Test: cell-based or functional assay

Sequence of Ribonuclease A (Type II-A) from bovine pancreas (bovine) (P61823 27-150): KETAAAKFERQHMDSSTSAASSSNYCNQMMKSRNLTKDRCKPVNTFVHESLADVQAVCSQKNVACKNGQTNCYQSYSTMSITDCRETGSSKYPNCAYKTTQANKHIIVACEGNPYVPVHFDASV

| IC50 for RNase A activity inhibition, HeLa total RNA cleavage, agarose gel image | inhibition level, RNA probe assay (fluorophore and quencher), inhibitor at 1 µM | Substance |
| --- | --- | --- |
| 257 nM | 35.8% | Biofact RNase inhibitor |
| 381 nM | 27.2% | RNaseOUT recombinant ribonuclease inhibitor |
